Test results from a protein production outcome set (Wang et al. 2014).

Test: label from the status in PepcDB records
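Also: failed if final PepcDB status was selected cloned or expressed and not failed if soluble or beyond.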

Sequence | protein production
MQFLGRSISKSIRPSLNSTARKSWVLSSQQFLSTSSTESSSRTRGGGGGNRAEKSSEEWPRPMEVPYQPKIANSIDLIGYVHQPVQFDSTLDGKFWAGTVISHEPSSDSKSESDSSSNFWIPVLFEGDLAHTANSYLKKNDRVHITGQILGDVIQSGANSDQAHVQLFKSFHGSFSHQVMVRDLHYIEGSKAMPKVLPTLDQNEGVLKHSASVQRGREFGTNLWFDLVDKPNEWCDYREMKQNGSVNPKHPDFKKKDGSQALWLNNAPTEILSELKDVKFDIPKYAKQPKAGEESWKDLVDNMNKWWDNRVDKRTPKSPDFKHKETGVGLWLSDSPSWVLEKLPPPKSKTSDIYGVQEMF | failed
MQFLNQSLGFFNKGCFEPIDRNFITESYQALKPIEEIQNKYNKHDNDSFLNELRDSMVALYLDYELINIQKHGLDAKRSSSDEFLEIKQVSFQSQLIKEFEFKMKPIDSKEQELINLFNLKFGHFSWENYLA | failed
MQFNPTLDSIKTYEAGKPIELVVREYGIKPQNVIKLASNENPFGASPKVIEAIAKEAVNAHRYPDDSMFELKEGLAGRFGVKSENVIIGSGSDQILEMAVHAKCNASSKVLMSKTTFAMYDVYSRQVGARILRTPSDQHHLGEFWEIYQKERPEILFLCLPNNPLGECLDREEVYDFLQKIDDETLVIVDGAYQEYAAFKDSQKRIDPKDLIERFPSSIFLGTFSKAFGLGGMRVGYGIAQPSIIQALMKMRAPFNITTLSLKAAIEALKESAYVEETIKENFKEMRRYEEFALAQGIDFIPSYTNFITLLLKNRVDSSEFSQWLLERGLIVRNLKSYGINAIRITIGRSLENDRCFELMQEYLHQF | failed
MQFPSIEDLRARNTMKWTRYGQGVLPLWVAESDFSTCPAVLQAITDAVQREAFGYQPDGSLLSQATAEFYADRYGYQARPEWIFPIPDVVRGLYIAIDHFTPAQSKVIVPTPAYPPFFHLLSATQREGIFIDATGGINLHDVEKG | failed
MQFSTTPTLEGLTIVEYCGVVTGEAILGANIFRDFFAGIRDIVGGRSGAYEKELRKAREIAFEELGSQARALGADAVVGIDIDYETVGQNGSMLMVSVSGTAVKTRR | not failed
MQGGSSGIGYGLKYQARCISDVKADRDHTSFLTGTLSLKEENEVHLLRLSSGGSELLCEGLFSHPNEIWDLASSPFDQRIFSTVFSTGDSYGAAIWQIPEPYGQSNSSTLECVASLDAHVGKINCVLWCPSGNSDKLISMDEQNLVFWSLDSSKKSAEVLSKESAGMRHSLSGGAWNPHDVNSVAATSESSIQFWDLRTMKKNNSIERAHVRNVDYNLKREHILVSADDESGIHLWDLRKTKFPVQELPGHTHWTWAVRCNPEYEELILSVGTDSAVNLWFASASSEHKTSESPVEASRQRVNPLLNSYTDYEDSVYGLAWSSREPWIFASLSYDGRVVIESVKPFLPRR | not failed
MQGISASPERMNAQQRAAHVRQVVLARGDELRRRFPLLRHQDALGAGILAFALSGMLGSALLYVTGHLAWWACLLLNAFFASLTHELEHDLIHSMYFRKQRLPHNLMLGLVWLARPSTINPWVRRHLHLNHHKVSGSESDIEERAITNGEPWGIARLLMVGDNMMAAFIRLLRAPGARRKLGILVRTLAVYAPLALLHWGAWYVFLGFHGANGVAALLGSPIQWSQDTASLMHYVDIAVVVIIGPNVLRTFCLHFVSSNMHYYGDIEPGNVIQQTQVLNPWWMWPLQAFCCNFGSTHGIHHFVVREPFYIRQMTASVAHKVMAEMGVRFNDFGTFARANRFTRQEREAMQPAHNARA | failed
MQGNLTALLITAIIVLTVVCIGFLAGRDKSSRTSVEEWSVGGRRFGGLLVWFLVGADLYTAYTFLGLTSTAFTGGSVAFFAIPYSVLAYFIAYFFLPKLWKVAKIHKLTTLADYARERFNSKLLASLVAIVGVLMLIPYICLQLSGIQDTLQVAGTGYINVKFVVIISFILVALYTFFSGIKGPTYTAIIKDILVWVIMLFMVVSLPLIHFNGWTPMIDTLVKEAPQMLTIPSEGPKGIPWFITASIVSALALFMWAHAATGVFTAKSADAVRKNSMFLPLYNIVLILVIFLGFIAFLVLPEDTNPRLALLHLIQTSYGGVAQGFAYATIALASLIPCSIMAIGASNLFANNLYRDLIHPNVSQSKLTLVTRSMVFVVIGLALLFGMLFPTALVTLQLLGVSGMVQIFPAIAVSLFWKNQTKEATVIGLLAGLAVTFIVYITQSAHGIYEGFWGLAANMIAVVILNPLFVKNAGSNPVIEGLFGKKQDANPNQKGA | failed
MQGWLVIPVSLAYLGVLFLIAWYGDRQTRWLANWRPWIYSLSIAVYCTSWTFYGTVGQASVNPWSFLPIYIAPILMFVFGWRVLARLILIAKREHITSLADFIAARYGKSQGLAVAVTVIAVLGILPYIALQLRGITMGLNIVAPDLMTVYGYQESHVSWFVVLALALFTMLFGTRHIDNTEHHRGMMMAIAFESIVKLVAFLCVGVFIAYLAWRTDGLELSTIAASTYQAPNWPTLLIHTLLTMIAIVCLPRQFHTMVVENERPQDLHTARWLFPVYLLLMSLFVLPIAWTGQGLLPNTSPDTFVISLPVFAGAHDIALLAFLGGTSAASGMVIVSTIALAIMVSNDLVMPLLLRRMRLSQRTHRHFSGLLVVIRRTLILLLLFGAWGFYLVLDSIPSLSAIGFLSFSAITQFAPAIFGGMYWREGNRKGVYVGLAVGFTLWLITLMSATDMLAGDASNNVLLWVITPPDWLVALGLKSADWGMLLSVTLNTLCYIGVSLVTRASLSERLQAAAFVGTPLPENENMSLYQSRVTVGELEMLASRFVGRTRVRNAFAQYWSQQRETLLPNQQASSALIRHTERVLAGVFGASSAKLVLTSALQGRKMQLEEVATIVDEASELYDFSRGLLQGAIEHIGQGIAVVDKQLRLVAWNQRYLELFEFPPGLIQVGRPIADVIRHNAQQGLCGPGDPEDHVRRRVYHLEQGTSHTSSRVRADGRVIEVQGNPMPGGGFVMSFTDITVFREAEQSLKMANETLEERVLQRTLELEKLNKQLVTATQRSERESQSKSRFLAAVSHDLMQPLNAARLFASSLSEVAKEAEVQKLAHHIESALGAAEDLISDLLDISRLESGKIDLHPHSFAIMDVLSNLNAEFSALAAKQGVQFSLVPSLLWVHSDPKLLRRVIQNFLTNAFRYNPNGKVILGVRRVATGQVRIDVWDNGIGIEQDKQQEIFEEFNRGGQVRSDQGLGLGLAISKGIAHVLGHHISMRSWPGQGSVFSITLDRAQPMPSSLTQTVAMVNEKGSELQHLRVLCVDNEPDILVGMRDLLERWGCEVKTATDIHGSLKALEGQWIPDVILSDYRLDNGRTGLEVLQQCRLRLGDCFAGVIISADRNPDILDGIESSGFRFMAKPIKPLKLRALLNSLS | failed
MQHLREWLSDWFRRILPNAQAVSFAILLVVGFIVVVSLAKMLMPVFAAGIIAYLLDGLVEIGERRKLPRLVSVIVVYLLFLALLLVVFIGLLPLLYQQTLQLIEQAPSWVNRGQVLIMELPERYPDYITQEQVNDLIGAIRAELISYGQSMLTYSYASLVSLITVVVYFILVPLLVFFFLKDRDRILGWFTQYLPRDRNLSNRVWKEVDMQIGNYVRGKFVEIVILFAASFVTFSLMGLNYALLLAVLMGISVIIPYVGATLVTFPVMIVAFFQWGVSDDFWYLMLAYAIIQALDGVMLVPLLFSEVVNLHPVAIIVAILFFGGWWGFWGVFFAIPLATLVKAVLSAWPRLGEGEMPAAGGP | failed
MQIRVYDEGAVQDCLFVLGWGNRCRHRTVQWLIDQLTTAYRVHAVELPTHITDYRREWVGPVQEYAADLGRFDLLGHSAGGLTAAHLDADGIGNRVYLSPWWDSDFPVPGPVLDAIASLPITKPFIPIDTLDADAIGDLATAQQLAEAPSSVSPAFLRTVFRAQRSLPPARDTAAAFCSLTDTVVDPRAVGERLPADRIRLYDGGHELFSSSGREDTAETVIDTLQHGPDAL | failed
MQIVTDKNKVALYYKDIAVTYKEFILNTKKIKQFTKIKEFTNNMIYMENRPELLYSFFAIWDSRATCVCIDASSTAVELTYYIDNSDVVKIFTTKMQVEKVKGALSILSKQIEIIVVDEINLSEIKIDENSSENLVINSPEKEDTALILYTSGTTGKPKGVMLTFDLEHHHHHH | failed
MQKFFQRIWQWIQQLFAPLVGGPGPGTKSLQELPPLSDTDYEFLFNQLLEGIAHGWHEGRILKFFQQLDHRCRPKQWLDWLDRFQTTVLASPSPNLVLAARMMRLGELAQSFPQIAPIGDKSQRIGRELYARQSPPQMDTVWEYDGPDLVSIDQAQGQMETFTFDELVQRLPQDAALATHFAGFLGIESTDPQVILRALMEKFAIPEEMLTEALNHGGESSSAPVDSLVEDQGTASALAQEELWPLVDPVTIDNSQFENNQEPHTAEDWLNLGIQQAQRGELETAIASWGEAISLNPQMTSAWQNRGSALGVMGKLEEALANFDEALAQNPDDAEVWLSRGLLLEAMERKEEAIPSYEKALTLEPTLPEAQERLEELQGLLSQD | failed
MQKLTRINDFNEVLNSRKSVKVFDENYKIPREEMDEIITKATKAPSSVNMQPWRIAVVQSDEMKEKVKESFGFNSRQLTTSSAMLIIFGDLQNYEKAEQIYGDAVEQQLMTEDIKAQLLDWILPYYKNLSREGMKDIVNIDSSLMAMQLMLTAKAHGYDTNPIGGFDKENIADIIGYDSDRYVPVLAIAIGKKAQDAHDSVRLPIDDVREFL | not failed
MQKVVLATGNVGKVRELASLLSDFGLDIVAQTDLGVDSAEETGLTFIENAILKARHAAKVTALPAIADDSGLAVDVLGGAPGIYSARYSGEDATDQKNLQKLLETMKDVPDDQRQARFHCVLVYLRHAEDPTPLVCHGSWPGVITREPAGTGGFGYDPIFFVPSEGKTAAELTREEKSAISHRGQALKLLLDALRNG | not failed
MQLALVLSELGEYQVSNQWLLKIIHDLDETMYDCLYFLANNYACLGLFREATQYAEQYLTCESDGEFADDAADLLELLKLDRHDVSEEQEQLITMQERARHLLEQERFAEAIEALEAIVSRYPEFWSAHNNLALAYFYNGDVERAKQKLLEVLKRDPGNLHALCNALVFAYYLHDQEEVAALCETLASVYPFFREHQYKLGATFALVGRFDSAFRWLYRLYKNGFDGDGPFYYWLAYSAYHIGHESLARQVWETLTTLHPEKLEHHHHHH | failed
MQLINLRYISNWRVLLIAVVVLLCLLLSSQLGVVKPYEIVDPLDILGEGSTLFLTILIVIFMVTDRPRGNVTNLFYSGGLLLIFSMTLDVLDEFFRYPDALRLLSWLESFPLPVGLIIISFAAAEWRRENKMLSRQLMVREKNLRSHQWVDPLTSLYTTPYFIKLVEREIALQNSTDAESTVLVSVNFKNFAQYNHEMGTKAGDELLHQASELMVLLLRPQDCLCREHSDHFLILLPQTRLSQADRLMKVIAQNLNSELELPNYMSVEVHTHRVEELSAVDAITALHTQVEEMTHYAPLAN | failed
MQLRTKLVIYSTVCCAFGVLLTLATMKYLFSTSSPEVATPATLPDVQLPELDLAQLQDSVAAIESAIKNTEQFQQAFSLQERLRADQIKHELQKLEQLKQEQLQIKLYKLELLKQGLFNPAPHPANMVPALPVVEQSKLPPLSLDPQAEHTPPIFELVLVILLACSVCALGVAWFTRHLARSLDALEVGLLNFNDNDFSVSIPTNGEGQLKTLAELFNHSAAKLRQERQYIYQRELLLDKVIQSSPNVMLLLNDHQRLMYANDAARHLFQIKGKMEGLSLEELLQELPEALALALKQEKSGLFTMGEDDAETWYLSRGQFLLNNQQHNLILLKQMTRELNRQEVAVWKKVIRIISHELNNSVAPIASMVNSGRLLTKDLDNPKLKLIFDTIESRTNHLSQFIYNYARFAKLPLPQRRKVAWSQLIEQLTQHYPFSLTHELPIEDGYVDQGQMEQVLLNLLKNAHESGSNPEEVTLSIRYQKMVDGGGFSIKIEDRGSGMSEEVLEQALLPFYSTKQSGTGLGLPLCREIIEAHDGSISMHNRTEGGLSVLLWLPQ | failed
MQLYYLGPKGTFSYLACRQYFSENEATFQPKSNLFEVIKAVADDDTSIGVVPIENSIEGTINIVADALAQQDVFAHGEIRLDINFALYGNGTDSISDIKKVYSIAPAISQTTNYIHQHQFDYDYVDSTIQSLTKIENGVAAIAPLGSGEAYGFTPIDTHIEDYPHNVTRFLVIKNQQQFDQNATSLMFLITPMHDKPGLLASVLNTFALFNINLSWIESRPLKTQLGMYRFFVQADSAITTDIKKVIAILETLDFKVEMIGAFN | not failed
